One assay relates to E. coli MG1655. Kind of assay: DIvERGE mutagenesis of gyrA, gyrB, parC, parE with ciprofloxacin selection. It counts as cell-based, Escherichia coli. Conditions: one round of DIvERGE.
A further assay concerns E. coli SEER chassis. Kind of assay: SEER library selection (frequency and enrichment by NGS). The class given is cell-based, Escherichia coli. The following applies: Broad RecT Library, 10 rounds of SEER. As to the method: Therefore, it was determined whether by screening additional RecT variants, again exploiting the increased throughput of SEER compared to previous efforts, one might discover recombineering proteins further improved over Redβ and PapRecT. To this aim a second library was constructed, identifying a maximally diverse group of 109 RecT variants, 106 of which were synthesized successfully, which was called Broad RecT Library (see Methods for more details). Next, as previously described, 10 rounds of SEER selection was performed on Broad RecT Library (FIGS. 8A-8B), and upon plotting frequency against enrichment after the final selection, a clear winner emerged (FIG. 9A). […]
Native resistance alleles were identified in each of the three species for resistance to rifampicin (rif) at the rpoB locus or streptomycin (stm) at the rpsL locus. The concentration of antibiotic necessary to confer a selective benefit to the resistant allele was determined for each strain. […]
Primers were designed to amplify a 215 bp product containing the barcode region of the SSAP libraries from the pARC8 plasmid and to add on Illumina adaptors. […] Barcoded amplicons were then purified with AMPure XP magnetic beads (Beckman Coulter), pooled, and the final pooled library was quantified with the NEBNext Library Quant Kit for Illumina (NEB). […]

B1: CspRecT: RecT SSAP (UniParc ID: UPI0001837D7F) from a phage of Collinsella stercoris (protein)
chain: MNQIVKFTDDSGLAVQVTPDDVRRYICENATEKEVGLFLQLCQTQRLNPFVKDAYLVKYGGAPASMITSYQVFNRRACRDANYDGIKSGVVVLRDGDVVHKRGAACYKKAGEELIGGWAEVRFKDGRETAYAEVALDDYSTGKSNWAKMPGVMIEKCAKAAAWRLAFPDTFQGMYAAEEMDQAQQPEQVRAQAEQPVDLQPIRELFKPYCEHFGITPAEGMTAVCGAVGAEGMHSMTEQQARRARAWMEEEMAAPAVEAEYEVVDEGEVF
modifications: Collinsella stercoris DSM 13279
As to B1, in the assay with E. coli MG1655 (250 ng/mL CIP, 130 oligos), the “Colonies relative to Redβ and PapRecT” value is recorded as “more than ten times as many colonies”. Also, the Resistant variants produced result with E. coli MG1655 (1,000 ng/mL CIP) is given as “only the use of CspRecT produced resistant variants”. In addition, the “Frequency against enrichment after final selection” value in the assay on E. coli SEER chassis is “clear winner”.

(Values after patent US20220228157A1, “GENE EDITING IN DIVERSE BACTERIA” (priority 2019, published 2022).)
